Source: the DeepSol protein solubility set

Assay: soluble on expression in E. coli; label from the status in PepcDB or PDB records
In the case of “MHHHHHHSSGVDLGTENLYFQSMAARVLIIGSGGREHTLAWKLAQSHHVKQVLVAPGNAGTACSEKISNTAISISDHTALAQFCKEKKIEFVVVGPEAPLAAGIVGNLRSAGVQCFGPTAEAAQLESSKRFAKEFMDRHGIPTAQWKAFTKPEEACSFILSADFPALVVKASGLAAGKGVIVAKSKEEACKAVQEIMQEKAFGAAGETIVIEELLDGEEVSCLCFTDGKTVAPMPPAQDHKRLLEGDGGPNTGGMGAYCPAPQVSNDLLLKIKDTVLQRTVDGMQQEGTPYTGILYAGIMLTKNGPKVLEFNCRFGDPECQVILPLLKSDLYEVIQSTLDGLLCTSLPVWLENHTALTVVMASKGYPGDYTKGVEITGFPEAQALGLEVFHAGTALKNGKVVTHGGRVLAVTAIRENLISALEEAKKGLAAIKFEGAIYRKDIGFRAIAFLQ”, the “soluble on expression in E. coli” value is reported as “soluble”. In the case of “DAKEKRLREIQFEKEMIERDMREYRGFSRAVRAVFEEKERFPGLVDVVSNLIEVDEKYSLAVSVLLGGTAQNIVVRNVDTAKAIVEFLKQNEAGRVTILPLDLIDGSFNRISGLENERGFVGYAVDLVKFPSDLEVLGGFLFGNSVVVETLDDAIRMKKKYRLNTRIATLDGELISGRGAITGGREERSSNVFERRIKLKHLEQEMEETERQI”, the “soluble on expression in E. coli” value is reported as “soluble”. In the case of “MSLANYIKDIREKVGHMPLIMVGVGAAYIKEEKVLLQERADTGGWGLPGGYMEYGESIEQTLKREFKEDAGLEIIDYKFLKNFDREFFKYPNGDQTQVLTPFYLVTKVKEGKPQFDPHETSRVDFFDFNDLPEIHFASHKRILTYLQDILEGHHHHHH”, the “soluble on expression in E. coli” value is reported as “not soluble”. In the case of “MISHLFQTYGRRTVEFVKGNGTKVIDNNGKQYLDFTSGIGVCNLGHCHPTVMKAVQEQLNDIWHISNLFTNSLQEEVASLLTENIALDYVFFCNSGAEANEAALKLARKHTGKSLVVTCEQSFHGRTFGTMSATGQNKVKEGFGPLLPSFLHTPFNDIKALKEVMNEEVAAVMVEVVQGEGGVIPADLSFLKEIETLCKKFGSLFIIDEVQTGIGRTGTLFAYEQMGIDPHIVTTAKALGNGIPVGAMIGRKELGTSFTAGSHGSTFGGNYVAMAAAKEVLQVSKRLSFLKEVQEKGEYVLQKLQEELQHVECIQNIRGKGLMVGIECTHEVASFIEQLEKEGLLVLQAGPNVIRLLPPLIVTNEELEQAVYMIKKVVCTKNVSII”, the “soluble on expression in E. coli” value is reported as “not soluble”. With “MRIGQYQLRNRLIAAPMAGITDRPFRTLCYEMGAGLTVSEMMSSNPQVWESDKSRLRMVHIDEPGIRTVQIAGSDPKEMADAARINVESGAQIIDINMGCPAKKVNRKLAGSALLQYPDVVKSILTEVVNAVDVPVTLKIRTGWAPEHRNCEEIAQLAEDCGIQALTIHGRTRACLFNGEAEYDSIRAVKQKVSIPVIANGDITDPLKARAVLDYTGADALMIGRAAQGRPWIFREIQHYLDTGELLPPLPLAEVKRLLCAHVRELHDFYGPAKGYRIARKHVSWYLQEHAPNDQFRRTFNAIEDASEQLEALEAYFENFA” the “soluble on expression in E. coli” value was “not soluble”. In the case of “MILITLLKDGVGEKMRIVFDLGGSVVMPKEGAKAEKIMEYANIFKKIKDEGHEVAIVVGGGKTAREYIEIGRELGASESFCDELGIMATRMNAMILITALGDYSIKKVPTSFEEAELILNLGKIPVMGGTHPGHTTDAVAASLAEFINADLLVIGTNVDGVYDKDPNKYEDAKKFDKMSAKELVDLAISSSLKAGSSSVVDLLAAKIIERAKLKVAVVKGTPEELLNVSKGIINGTIIEG”, the “soluble on expression in E. coli” value is reported as “soluble”. For “MGSDKIHHHHHHMSIINDEKLRKYVPEERLDKVKERLEILDTYDLSYITSNFIWKGRRFSPEQVWPIKIYYGKADRELAEKIEKEFRRFVALTIVFPKRLFTASGAVDLYWHFLILHTKEYEKFSKSVWGIPRYDNVLLKKLLNNDDNSFRLRFNLKPDNVNEITILPKKALESLDDKTLDRVLMLERLDLSPISENLLHTIDEFKFVPEQRFPLIAHFGKLDNNIVKRIELEFKKWMALNIAYGGKELNYAAPSGVVDMYFHLFILHTILYKQFCEIFFGKFIHHPLGELF”, the “soluble on expression in E. coli” value was “not soluble”. For “MGSDKIHHHHHHMSRFAACFEDLPDPRGRNARHPLTSILFIAVAAIVCGAESCTDMADFGVAKKKWLKTIVPLPYGIPSHDTFSTVFRHLDPDAFDAAFRRLTASFAQGLEGVVAIDGKAVRGAYRRAAKATPLHFVNVWAAGPGLVIGQKLAPGRNEVQGALDALALLALEGSIVTADALHCRPDTARAILAAGGDYALALKANQPGLLAQALARIEDADHVESIQIAAETAHDRTETRRASVVAVDDINFPGLQAIGCVETTSRHTNGHLTSHVRYFLLSTTMSPSALIEVVRTHWQIENKLHWVLDVHFREDAARNRKDNGPQNIAFLRKIALNLLRSHPDKASIRRKIKKAGWDDQFLTSLIAHMR”, the “soluble on expression in E. coli” value was “not soluble”. For “MSLTKNNISFYVVDASEELTMNIKEASEKSGVSADTIRYYERIGLIPPIHRNESGVRKFGAEDLRWILFTRQMRRAGLSIEALIDYLALFREGEHTLEARAELLKKQRIELKNRIDVMQEALDRLDFKIDNYDTHLIPAQEELKDFNVERSNEGHHHHHH”, the “soluble on expression in E. coli” value was “soluble”. With “MGCDFAIAKDFLLFFLTKPISMKLSVIIPIYNEIQTIEKILKKITTVMPEIPKEIVMVDDGSKDGTREWLVDTFGDPEQHPVLANVNLAGKFQCFPLDQSAETNGDRQGNSFVMPKEWEVKVIFHRQNQGKGGALHTAFAAATGDVLIIQDADLEYDPEDWGPMWKLIDGGWADVVYGSRFYGNPHRVLYFHHYLGNKLITSLIDLVCNINLTDIEVCYKMFRREVLEDLRLTCNDFGFEVEFTMKVTRSPKRWRIYEVGVAYYGRTFAEGKKINWRDGVKALGYIAKFWLTNALEHHHHHH” the “soluble on expression in E. coli” value was “not soluble”. For “MLNVGATAPDFTLRDQNQQLVTLRGYRGAKNVLLVFFPLAFTGICQGELDQLRDHLPEFENDDSAALAISVGPPPTHKIWATQSGFTFPLLSDFWPHGAVSQAYGVFNEQAGIANRGTFVVDRSGIIRFAEMKQPGEVRDQRLWTDALAALTA”, the “soluble on expression in E. coli” value was “soluble”. With “MSLSLPLFYAPDIEQSDRLPDDEAGHILRVLRMQAGDRLRLTDGRGSFFDAVIETADRKSCYVSVCGQESWQKPWRDRITIAIAPTKQSERMEWMLEKLVEIGVDEVVFIESEHSERRRIKAERLERIAISAMKQSLKASFPVIRVNIPIQTVIADTPKAAVRLIAYVDEAVRAEITQGRGYPSDFYHVGQDVLILIGPEGDFSPSEVESALLAGFAPVSLGESRLRTETAGLVACQWIHTLQACYRIGEGHHHHHH” the “soluble on expression in E. coli” value was “soluble”. For “MLSKKRSMSFAKRTLLSVSLSLVSGLSFAKMYELPEDGSRLIGRLENHVVQQGETMANIAKHYDVGMLALMAANKGVDPFLPQEGRVLTIPSQLILPEVPHQGIVINLAELRLYYFPEGEDVVHVFPVGIGRIGRDTPVMTTSISQKRPNPTWTPPASIRAEYRAKGVDLPAVVPAGPDNPLGLFALRLAYGNGEYLIHGTNKDFGIGMRVSAGCIRMDPSDIEWLFDKVRRGEKVNIINQPVKVSLEPDRSVFVEAHEPLTRSNGEKDHLQVPKELGWWLNEFGLTNVKAKAVIAAQNGVPVEITAP”, the “soluble on expression in E. coli” value was “not soluble”. In the case of “MGSDKIHHHHHHMYIQIVFAVKGRNSLIHPSWENELHKYMTGFIQNNGQKLLAINGMPDHIHILIGMKPSCCLSDLIRELKKSSSSFIKDKKLSPYAFQWQEGYGAFSYSHSNLNQVIAYIMNQKEHHKKRTFKEEYLEFIQKFELEYNPKNLFEWMD”, the “soluble on expression in E. coli” value is reported as “not soluble”. For “SLKVNNLIAGALNLNSKDYKKSGKKVSFDKNNLFSSIFQAESVKEDKHFILLENGEFNLDLIKSMLDGINETGERLLSEPSRQNVIFYKKVISEFISIIISSSVCLKEQKGGNLGDPKRPKYRIIKIINDKLDKLAYSVLQNQMTQIKLLDSIEEIQGLLVNLLM”, the “soluble on expression in E. coli” value was “soluble”. With “MGSDKIHHHHHHMNESSTHDSVADDPTEVSTDTVLDIALSLFSELGFSDAKLEAIAKKSGMSKRMIHYHFGDKRGLYICCLEEAVRRLRPTAEEMYLASAVPVEGVRTIVEAVFHRYVQHPEAVRMLQMENLHHYGKVAEASPLSDQSAITLQLDRLLMLGQDAGAFRPGISAQDVFTLIASIAVFRINSRSTTLNLYGIDMMNGDNTDGMRRMAVDTVLAFLTSNLKSADEDSYLSRPLLSTVTEHVDEEGSYEVAADPFS” the “soluble on expression in E. coli” value was “not soluble”. With “FNKIKDSVKQKIDSMGDKGTYGVSASHPLAVEEGMKVLKNGGSAVDAAIVVSYVLGVVELHASGIGGGGGMLIISKDKETFIDYRETTPYFTGNQKPHIGVPGFVAGMEYIHDNYGSLPMGELLQPAINYAEKGFKVDDSLTMRLDLAKPRIYSDKLSIFYPNGEPIETGETLIQTDLARTLKKIQKEGAKGFYEGGVARAISKTAKISLEDIKGYKVEVRKPVKGNYMGYDVYTAPPPFSGVTLLQMLKLAEKKEVYKDVDHTATYMSKMEEISRIAYQDRKKNLGDPNYVNMDPNKMVSDKYISTMKNENGDALSEAEHES” the “soluble on expression in E. coli” value was “soluble”. In the case of “MGHHHHHHSHGGSRTGPVSLQGDPKQAPWSSSQSNSSRKTLFLSLCPPFPTQPQIHLHFTEHRASSHQGGPFKLQICLSSLYSNLLLHCHYREVHHMSGHRTESAGGHLFLPQDLRWKSPGLGVFAVQSVYELARRHNVSPFYSGPP”, the “soluble on expression in E. coli” value is reported as “not soluble”. With “MQPEEGTGWLLELLSEVQLQQYFLRLRDDLNVTRLSHFEYVKNEDLEKIGMGRPGQRRLWEAVKRRKALCKRKSWMSKVFSGKRLEAEFPPHHSQSTFRKTSPAPGGPAGEGPLQSLTCLIGEKDLRLLEKLGDGSFGVVRRGEWDAPSGKTVSVAVKCLKPDVLSQPEAMDDFIREVNAMHSLDHRNLIRLYGVVLTPPMKMVTELAPLGSLLDRLRKHQGHFLLGTLSRYAVQVAEGMGYLESKRFIHRDLAARNLLLATRDLVKIGDFGLMRALPQNDDHYVMQEHRKVPFAWCAPESLKTRTFSHASDTWMFGVTLWEMFTYGQEPWIGLNGSQILHKIDKEGERLPRPEDCPQDIYNVMVQCWAHKPEDRPTFVALRDFLLEAQPTDMRALQDFEEPDKLHIQMNDVITVIEGRAENYWWRGQNTRTLCVGPFPRNVVTSVAGLSAQDISQPLQNSFIHTGHGDSDPRHCWGFPDRIDELYLGNPMDPPDLLSVELSTSRPPQHLGGVKKPTYDPVSEDQDPLSSDFKRLGLRKPGLPRGLWLAKPSARVPGTKASRGSGAEVTLIDFGEEPVVPALRPCPPSLAQLAMDACSLLDETPPQSPTRALPRPLHPTPVVDWDARPLPPPPAYDDVAQDEDDFEICSINSTLVGAGVPAGPSQGQTNYAFVPEQARPPPPLEDNLFLPPQGGGKPPSSAQTAEIFQALQQECMRQLQAPGSPAPSPSPGGDDKPQVPPRVPIPPRPTRPHVQLSPAPPGEEETSQWPGPASPPRVPPREPLSPQGSRTPSPLVPPGSSPLPPRLSSSPGKTMPTTQSFASDPKYATPQVIQAPGAGGPCILPIVRDGKKVSSTHYYLLPERPSYLERYQRFLREAQSPEEPTPLPVPLLLPPPSTPAPAAPTATVRPMPQAALDPKANFSTNNSNPGARPPPPRATARLPQRGCPGDGPEAGRPADKIQMAMVHGVTTEECQAALQCHGWSVQRAAQYLKVEQLFGLGLRPRGECHKVLEMFDWNLEQAGCHLLGSWGPAHHKR” the “soluble on expression in E. coli” value was “not soluble”.
